# Reference: patent US20110229476A1 (Bayer, published 2011)
# B1: anti-RG1 IgG 19G9 (antibody, V domains shown)
# VH: QVQLVQSGGGLVQPGGSLRLSCAGSGFTFSSYVMHWLRQAPGKGLEWVSVIGTGGVTHYADSVKGRFTISRDNAKNSLYLQMNSLRAEDTAVYYCARWGYYGSGSYENDAFDIWGQGTMVTVSS
# VL: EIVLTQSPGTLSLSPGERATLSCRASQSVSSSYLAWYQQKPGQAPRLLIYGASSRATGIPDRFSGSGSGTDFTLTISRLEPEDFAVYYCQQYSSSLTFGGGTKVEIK
# Target: T1, tumor-associated antigen RG1 (Homo sapiens (Human), UniProt Q9BUD6 27-331)
# T1 construct: Coated directly on 96-well plates at 1 ug/ml; also called RGI
# T1 sequence: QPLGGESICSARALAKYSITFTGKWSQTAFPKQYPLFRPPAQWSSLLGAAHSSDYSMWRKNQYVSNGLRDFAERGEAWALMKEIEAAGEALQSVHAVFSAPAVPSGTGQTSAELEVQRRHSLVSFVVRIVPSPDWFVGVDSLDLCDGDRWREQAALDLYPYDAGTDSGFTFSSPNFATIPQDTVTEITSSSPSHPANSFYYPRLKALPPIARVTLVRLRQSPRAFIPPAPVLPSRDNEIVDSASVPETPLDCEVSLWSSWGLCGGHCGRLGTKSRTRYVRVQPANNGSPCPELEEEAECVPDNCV
# Assay: RG1-binding ELISA, RG1 coated on plate, 4-parameter fit
binder,measurement,value
B1,IC50,1.4 nM
